From PMC8802628, “Selective activation of PFKL suppresses the phagocytic oxidative burst” (Cell, 2021)
Numbering of substitutions follows the chain as printed. Names may count otherwise. “And” between values parts separate entries of the source, which are not always exact repeats. Equal entries are not always repeated.

Experiments:
[1] = substrate: O=C(CO)[C@@H](O)[C@H](O)[C@H](O)COP(=O)(O)O; experiment: Recombinant PFKL activity assay (relief of ATP inhibition); format: biochemical, human; settings: other: PFKL wild type, pH 7.5, 225 μM ATP, 25.0 °C
Description: (§1) Recombinant N-terminal His-tagged human PFKL (NP_002617), PFKM (NP_000280), and PFKP (NM_002627.4) were generated as described ([Webb et al., 2015], [2017]). Point mutants of PFK1 were generated using the QuikChange Lightning kit (Aligent).
(§2) His-tagged PFK1 was expressed and purified as described with slight modifications ([Webb et al., 2015], [2017]). Briefly, baculovirus was generated using the Bac-to-Bac Expression system (Invitrogen). PFK1 was expressed in 2-5 × 10^6 sf9 cells at a multiplicity of infection of two for 48 h. […] Protein was quantified using a Bradford Protein Assay kit (ThermoFisher Scientific), and aliquotes frozen in liquid nitrogen for storage at −80°C.
(§3) PFK1 activity was determined using the rate of FBP production via an auxiliary enzyme assay adapted to a 96-well format ([Brüser et al., 2012]; [Webb et al., 2015]). […] For assays containing FBP, the rate of ADP production was determined using the auxiliary enzymes pyruvate kinase (PK) and lactate dehydrogenase (LDH) (MilliporeSigma) in a buffer containing 250 μM phosphoenolpyruvic acid, […] NADH, 50 mM HEPES pH 7.5, 100 mM KCl, 1 mM DTT, and effector concentrations as described in the text. […] Absorbance at 340 nm was measured using a Varioskan LUX Multimode microplate reader (ThermoFisher). […]

[2] = biological target: the molecule itself; experiment: cryo-EM structure; 9 uM purified PFKL with 1 mM ATP, 2 mM F6P and 50 uM NA-11 in 20 mM HEPES pH 7.5, 1 mM DTT, 500 uM ammonium sulfate, 5% glycerol, 100 uM EDTA; refinement focused on a single, masked tetramer
[3] = substrate: O=C(CO)[C@@H](O)[C@H](O)[C@H](O)COP(=O)(O)O; experiment: Recombinant PFKL−pocket activity assay; format: biochemical, human; settings: other: PFKL−pocket, pH 7.5, 225 μM ATP, 25.0 °C
Description: as §1, §2, §3

[4] = substrate: O=C(CO)[C@@H](O)[C@H](O)[C@H](O)COP(=O)(O)O; experiment: Recombinant PFKL−hook activity assay; format: biochemical, human; settings: other: PFKL−hook, pH 7.5, 225 μM ATP, 25.0 °C
Description: as §1, §2, §3

B1: phosphofructokinase-1 liver type (PFKL), human, recombinant N-terminal His-tagged (enzyme)
chain: MAAVDLEKLRASGAGKAIGVLTSGGDAQGMNAAVRAVTRMGIYVGAKVFLIYEGYEGLVEGGENIKQANWLSVSNIIQLGGTIIGSARCKAFTTREGRRAAAYNLVQHGITNLCVIGGDGSLTGANIFRSEWGSLLEELVAEGKISETTARTYSHLNIAGLVGSIDNDFCGTDMTIGTDSALHRIMEVIDAITTTAQSHQRTFVLEVMGRHCGYLALVSALASGADWLFIPEAPPEDGWENFMCERLGETRSRGSRLNIIIIAEGAIDRNGKPISSSYVKDLVVQRLGFDTRVTVLGHVQRGGTPSAFDRILSSKMGMEAVMALLEATPDTPACVVTLSGNQSVRLPLMECVQMTKEVQKAMDDKRFDEATQLRGGSFENNWNIYKLLAHQKPPKEKSNFSLAILNVGAPAAGMNAAVRSAVRTGISHGHTVYVVHDGFEGLAKGQVQEVGWHDVAGWLGRGGSMLGTKRTLPKGQLESIVENIRIYGIHALLVVGGFEAYEGVLQLVEARGRYEELCIVMCVIPATISNNVPGTDFSLGSDTAVNAAMESCDRIKQSASGTKRRVFIVETMGGYCGYLATVTGIAVGADAAYVFEDPFNIHDLKVNVEHMTEKMKTDIQRGLVLRNEKCHDYYTTEFLYNLYSSEGKGVFDCRTNVLGHLQQGGAPTPFDRNYGTKLGVKAMLWLSEKLREVYRKGRVFANAPDSACVIGLKKKAVAFSPVTELKKDTDFEHRMPREQWWLSLRLMLKMLAQYRISMAAYVSGELEHVTRRTLSMDKGF
notes: human phosphofructokinase-1 liver type (PFKL), NP_002617; Homotetramer; In cryo-EM it mostly formed stacked pairs of tetramers; The sample held ATP, F6P and the small molecule NA-11; also called PFK1 liver isoform; wild-type PFKL; source: Sf9 cells (baculovirus, Bac-to-Bac), purified (HisPur cobalt resin, desalting column)
Km [1]: 1970 ± 240 µM
stoichiometry N [2]: 4 and 8

B2: PFKL(K315R) (PFKL−pocket) (Homo sapiens; K315R) (protein)
chain: B1 chain with K315R
notes: made in house; host or cells: Sf9 insect cells (baculovirus)
Km [3]: 2060 ± 120 µM

B3: PFKL(V545L, V582M) (PFKL−hook) (Homo sapiens; V545L/V582M) (protein)
chain: B1 chain with V545L, V582M
notes: as for B2
Km [4]: 1200 ± 90 µM
